From patent US20030008291A1 come the findings set out here.

Assay [1] deals with UvrA. The assay can be described thus: SPR (BIAcore), His-tagged β domain immobilised on Ni-NTA sensor chip, UvrA in solution, with ATP.
Assay [2] has as its target UvrA. The assay can be described thus: SPR (BIAcore), His-tagged β domain immobilised on Ni-NTA sensor chip, UvrA in solution, without ATP.
In assay [3] the target is TRCF-β (β domain of Thermus thermophilus HB8 transcription-repair coupling factor, His-tagged) (Thermus thermophilus HB8). The assay can be described thus: SPR (BIAcore), His-tagged β domain immobilised on Ni-NTA sensor chip, UvrA injected, with ATP (+ ATP).
For assay [4] the target is unchanged. The assay can be described thus: SPR (BIAcore), His-tagged β domain immobilised on Ni-NTA sensor chip, UvrA injected, without ATP (- ATP).

Chain of UvrA (enzyme) (Q56242 whole entry): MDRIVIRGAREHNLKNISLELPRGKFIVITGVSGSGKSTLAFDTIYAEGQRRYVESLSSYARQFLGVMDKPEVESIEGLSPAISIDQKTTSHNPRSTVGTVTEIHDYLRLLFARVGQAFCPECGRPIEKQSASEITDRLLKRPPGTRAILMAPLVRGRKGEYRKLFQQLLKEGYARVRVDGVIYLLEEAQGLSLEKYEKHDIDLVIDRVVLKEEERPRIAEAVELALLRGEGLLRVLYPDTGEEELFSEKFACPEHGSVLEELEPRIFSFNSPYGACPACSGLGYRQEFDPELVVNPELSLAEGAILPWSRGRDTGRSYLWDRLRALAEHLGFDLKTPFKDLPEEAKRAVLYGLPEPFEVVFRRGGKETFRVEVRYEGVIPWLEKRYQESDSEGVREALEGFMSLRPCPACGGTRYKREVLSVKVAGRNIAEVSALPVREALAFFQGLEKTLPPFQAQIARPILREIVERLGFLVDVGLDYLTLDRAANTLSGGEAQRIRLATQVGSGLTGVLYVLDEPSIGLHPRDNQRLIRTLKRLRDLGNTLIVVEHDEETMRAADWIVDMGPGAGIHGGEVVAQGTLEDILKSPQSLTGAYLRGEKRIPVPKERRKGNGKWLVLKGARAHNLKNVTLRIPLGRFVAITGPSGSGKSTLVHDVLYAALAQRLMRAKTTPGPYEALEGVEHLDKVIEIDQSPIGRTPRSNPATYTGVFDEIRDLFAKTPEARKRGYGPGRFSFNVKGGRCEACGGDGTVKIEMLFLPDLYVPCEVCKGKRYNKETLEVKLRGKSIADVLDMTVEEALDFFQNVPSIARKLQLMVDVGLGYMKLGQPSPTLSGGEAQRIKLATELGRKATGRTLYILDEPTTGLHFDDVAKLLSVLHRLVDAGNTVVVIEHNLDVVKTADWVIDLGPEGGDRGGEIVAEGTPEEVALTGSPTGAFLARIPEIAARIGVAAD
Chain of UvrA (Q56242 whole entry): as above

In the case of “TRCF-β (β domain of Thermus thermophilus HB8 transcription-repair coupling factor, His-tagged) (enzyme)”, the dissociation constant (Kd) in the assay with UvrA [1] was found to be 500 nM; with UvrA [2], 1300 nM.

Regarding UvrA (enzyme), in assay [3], the koff was 0.07 s⁻¹ and the on-rate (kon) stood at 150000 M⁻¹ s⁻¹. In assay [4], this substance came in with a koff of 0.13 s⁻¹ and a kon of 100000 M⁻¹ s⁻¹.
